Experiment: soluble on expression in E. coli; label from the status in PepcDB or PDB records

Sequence | soluble on expression in E. coli
MEGGMKRVVLAFGTRPEATKMAPVYLALRGIPGLKPLVLLTGQHREQLRQALSLFGIQEDRNLDVMQERQALPDLAARILPQAARALKEMGADYVLVHGDTLTTFAVAWAAFLEGIPVGHVEAGLRSGNLKEPFPEEANRRLTDVLTDLDFAPTPLAKANLLKEGKREEGILVTGQTGVDAVLLAAKLGRLPEGLPEGPYVTVTMHRRENWPLLSDLAQALKRVAEAFPHLTFVYPVHLNPVVREAVFPVLKGVRNFVLLDPLEYGSMAALMRASLLLVTDSGGLQEEGAALGVPVVVLRNVTERPEGLKAGILKLAGTDPEGVYRVVKGLLENPEELSRMRKAKNPYGDGKAGLMVARGVAWRLGLGPRPEDWLP | soluble
MEGIDHLADERNKAEFDVEDMKIVWAGSRHAFEVSDRIARLVASDPVFEKSNRARLSRKELFKSTLRKCAHAFKRIIELRLNEEEAGRLRHFIDQPAYVDLHWGMFVPAIKGQGTEEQQKKWLSLANKMQIIGCYAQTELGHGSNVQGLETTATLDPKTDEFVIHTPTQTASKWWPGGLGKVSTHAVVYARLITNGKDYGIHGFIVQLRSLEDHSPLPNITVGDIGTKMGNGAYNSMDNGFLMFDHVRIPRDQMLMRLSKVTREGEYVPSDVPKQLVYGTMVYVRQTIVADASNALSRAVCIATRYSAVRRQFGAHNGGIETQVIDYKTQQNRLFPLLASAYAFRFVGEWLKWLYTDVTERLAASDFATLPEAHACTAGLKSLTTTATADGIEECRKLCGGHGYLWCSGLPELFAVYVPACTYEGDNVVLQLQVARFLMKTVAQLGSGKVPVGTTAYMGRAAHLLQCRSGVQKAEDWLNPDVVLEAFEARALRMAVTCAKNLSKFENQEQGFQELLADLVEAAIAHCQLIVVSKFIAKLEQDIGGKGVKKQLNNLCYIYALYLLHKHLGDFLSTNCITPKQASLANDQLRSLYTQVRPNAVALVDAFNYTDHYLNSVLGRYDGNVYPKLFEEALKDPLNDSVVPDGYQEYLRPVLQQQL | soluble
MEGIPGQRDGVYWLPPAEDGKDPATPWWLCSPLHVLAETRDASQSNWGRLLEWRDNDGHPHRWACPVEMLAASDTAEFRRELVRGGLTMSTSQKARQKLVDYVLSHRQAAATRLRCVSRIGWHDVRYVLPGEVHGEQDGEGVIYQGADSGDFDRAGTLQEWQTHIAAAAAGNSRIVFAISVAFAGVLADMAGESGGGFHFVGTTSKGKTSTLLDPAASVWGNPDQFAKKWRTTQNGLEGLCLGRNDNLLILDELAQIAPADAGGAAYLIANGQAKARMTKEGGNRPAHTWRVMLLSAGEIDLAQHMAEAGKSAKGGQIARLPAIPADAGAGMGTLEQLHQHPSGQAFADAMKAYSRQYYGTAGPAFLAALTPPECMDEIRRDIKDGVTGLIEYLGVPAGAAQEVGRVAARFALVAFAGELATRYGVTGWKPGEAVQAARRCFREWLAENHTGMAADDRALFAQVSGFMQTHSSTRFPPHDAAPEVLARYLNRAGFTFIDEQGTQQFWVLSEPFKKELCRGYTPLIAARSLLRAGWLLAGDTEGNTRRHTRKKRIKALDSATVNVYVLTSTVLEGEELEHHHHHH | not soluble
MEGLKLSEAELMIFIHPSQSRNVFQGICRELSSLLFQYNETFDGVLLAYDATVKSKQAKILTGLHPYFGVRVNTRLLLFDPKPKSFVEGKIVKISPESIHVIVLGFSAAVITDVDIREEFKYRVRDGEGSFVSRSHKRHALKLGTMLRLQVQSFDEEVMHIAGSLLPENTGCVKWLEKKSEEALPTDRDHKRRKLA | not soluble
MEGSVSEFLTVRLSSQKEADIPWLVWSAEQQEVIASGQVAGWEALHEIESYADQRSVVVLLAASDLILTSVEIPPGASRQLENMLPYLLEDEIAQDVEDVHFCVLSKGRETADVVGVDRLWLRACLDHLKACGFDVKRVLPDVLAIPRPEHGLAALQLGDEWLVRKSTTQGMAVDAQWLSLLAASDWVQNEGEYLPLQALTPLPELSLAETQEWRYEPSGLVMQLLTQEALTSKFNLLTGSFKLKSLEHHHHHH | soluble
MEGTMTCIYESVITGVGSEVQYFIEENMVVIFNDTVPDDLKSIGVIHKHTELQADVAAGDVLEVNGACFRILFVGDKVNDTLREIGHCTIAFNGETNADLPGTLCVEKKPLPDFVTGATIKFIKE | not soluble
MEGVKKIKNPSTVKDELLELMFRIYRSTNGKYPALEWVKRKPNPNDFNGFREVYEPFLKFRLSQEFDELYTYQKDNRIIGTIALVYKRIKEKGIWWVPEELMNEKVGLIEFFVVDPEFQGKGIGSTLLEFAVKRLRSLGKDPYVVTFPNLEAYSYYYMKKGFREIMRYKEFVILKFNHKKFQLEHHHHHH | soluble
MEIAFLLNGETRRVRIEDPTQSLLELLRAEGLTGTKEGCNEGDCGACTVMIRDAAGSRAVNACLMMLPQIAGKALRTIEGIAAPDGRLHPVQQAMIDHHGSQCGFCTPGFIVSMAAAHDRDRKDYDDLLAGNLCRCTGYAPILRAAEAAAGEPPADWLQADAAFTLAQLSSGVRGQTAPAFLPETSDALADWYLAHPEATLIAGGTDVSLWVTKALRDLPEVAFLSHCKDLAQIRETPDGYGIGAGVTIAALRAFAEGPHPALAGLLRRFASEQVRQVATIGGNIANGSPIGDGPPALIAMGASLTLRRGQERRRMPLEDFFLEYRKQDRRPGEFVESVTLPKSAPGLRCYKLSKRFDQDISAVCGCLNLTLKGSKIETARIAFGGMAGVPKRAAAFEAALIGQDFREDTIAAALPLLAQDFTPLSDMRASAAYRMNAAQAMALRYVRELSGEAVAVLEVMP | soluble
MEIDELPSGTQDQKPDIDMNEIVGTHDILMLCFDTLRYDVSVAEEASGGTPVLNSCGNGWEKRHAPGNFTYPSHFAIFAGFLPSPAEPHMLRNRKWLFFPFQAGTGRIPPEGSYAFKEATFVQSLAQVGYETICIGGVNFFSKRNDIGRVFPGYFNKSYWLPTFGCTDKNSAANQVDFAVDKLEKYPADRKVFMYINFSAIHYPNCHYVEGKKKDDKESHAAALRYVDSQLPRLFEAFRRRSDTLVIALSDHGTCYGEDGYEYHCISHEKVYTVPYKHFILRKLEHHHHHH | soluble
MEIGVPKEIKNQEFRVGLSPSSVRTLVEAGHTVFIETQAGIGAGFADQDYVQAGAQVVPSAKDAWSREMVVKVKEPLPAEYDLMQKDQLLFTYLHLAAARELTEQLMRVGLTAIAYETVELPNRSLPLLTPMSIIAGRLSVQFGARFLERQQGGRGVLLGGVPGVKPGKVVILGGGVVGTEAAKMAVGLGAQVQIFDINVERLSYLETLFGSRVELLYSNSAEIETAVAEADLLIGAVLVPGRRAPILVPASLVEQMRTGSVIVDVAVDQGGCVETLHPTSHTQPTYEVFGVVHYGVPNMPGAVPWTATQALNNSTLPYVVKLANQGLKALETDDALAKGLNVQAHRLVHPAVQQVFPDLA | soluble
MEIKERIQLLLSEMNRGVYEKEAEIGLSLLAALAGESILLLGPPGVAKSMVARRLKRAFVDARAFEYLMSRFSTPDEIFGPVSISRLKESDKYERAVDGYLPTADVVFLDEIWKAGPAIQNTLLTVINEKLFRNGDTELKLPLKLLVAASNELPTQGEGLEALWDRFLIRIISTCVKQEEAFYQMLLDDDDEEEQEACRWQISDEEYAGWQKEIRQIKVSAEVLSCITEIRKNLEKVEIQGSEVHRNVYVSDRRWKNIVKLLKASAFIHGRKEVCLTDLLPVYHCLWNEPEECADIRQIVVRALFVPYVKEIAAINLSLKSDLKVSRVREALEKARQKGDRRDDDLMIIDHFYYQIENHGTGNTYIFIVDYKNLKEYSPKDVPATGVMYADPLNPKRTIIRTFSDATKMKEQGAERVTLYRDEKNLYINGVRFPMRRLKRGEQQQLWLGNMTLTDRDYETELETAHGRIEKLVKDLSENIFISEEDKKGVAQYVATLRKEIAWARVDVRKLRYGDES | not soluble
MEIKRILVSRTDKIGDLVLSIPSFFMLKKMYPNAELVVIVRKYNVDIVKNLPYIDRIVIIDEYSKAELLEKIAYFKADVFIALYNDSYIASLARASKAKIKIGPISKLSSFFTYNKGVLQKRSLSLKNEGQYNLDLVTKLDRKRFAILYELNTKLEHHHHHH | soluble
MEKIFKVTSDSGIHARPATLLVNTASKFGSDINLEYNGKNVNLKSIMGVMSLGIQQNAEIKITANGDDAAQALAAIEETMKNEGLGE | not soluble
